Laboratory results taken from US20210017278A1 (PROTHENA BIOSCIENCES, published 2021).

What was measured:
Experiment in all cases: ELISA, peptide coated on plate, HRP secondary, A490
[1] = target: T1, peptide HEDT (SEQ ID NO: 19)
T1 construct: Coated on ELISA plates; also called X1EDX2 peptide
T1 peptide: HEDT
From the text: (§1) ELISA plates were coated with indicated peptides, blocked, and assayed with either NEOD001 or 2A4, as indicated. After washing, appropriate horseradish peroxidase-conjugated secondary antibodies were applied. The plate was then washed and developed with o-phenylenediamene, and absorbance was read at 490 nm.
(§2) ELISA plates were coated with peptides having the amino acid sequence HEDT (SEQ ID NO: 19), AEDS (SEQ ID NO: 20), or HGDT (SEQ ID NO: 21), blocked, and assayed with either NEOD001 (an antibody with a light chain having the amino sequence set forth as SEQ ID NO: 13 and a heavy chain having the amino acid sequence set forth as SEQ ID NO: 14) or 2A4 (ATCC Accession Number 9662), as indicated. After washing, appropriate horseradish peroxidase-conjugated secondary antibodies were applied. The plate was then washed and developed with o-phenylenediamene, and absorbance was read at 490 nm.

[2] = target: T2, peptide AEDS (SEQ ID NO: 20)
T2 construct: Coated on ELISA plates; also called X1EDX2 peptide
T2 peptide: AEDS
From the text: as §1, §2

[3] = target: T3, peptide HGDT (SEQ ID NO: 21)
T3 construct: Coated on ELISA plates; also called X1GDX2 peptide
T3 peptide: HGDT
From the text: as §1, §2

binding result [1]: binds
binding result [2]: binds
binding result [3]: binds
B1: NEOD001 (antibody, human IgG1, kappa, V domains shown)
VH: EVQLVESGGGLVQPGGSLRLSCAASGFTFNTYAMYWIRQAPGKGLEWVARIRSKSNNYAIYYADSVKDRFTISRDDSKNSLYLQMNSLKTEDTAVYYCARPYSDSFAYWGQGTLVTVSS
VL: DVVMTQSPLSLPVTPGEPASISCRSSQSLVHSTGNTYLHWYLQKPGQSPQLLIYKVSNRFSGVPDRFSGSGSGTDFTLKISRVEAEDVGVYYCSQSTHVPFTFGGGTKVEIKR
notes: It shares the CDRs of murine antibody 2A4; also called humanized version of antibody 2A4
